Reference: US20190345230A1
Positions count from the first letter of the chain named.

B1: monoclonal antibody 7G6 (antibody, V domains shown)
VH: EVQLQQSGPELVKPGASVKISCKASGYTFTDYNMHWVKQSLGKSLEWIGYIYPNNGGTGYNQKFESKATLTVDNSSSTAYMELRTLTSEDSAVYYCVRSGAYYFNYLVPYFDYWGQGTTLTVSS
VL: NIVLTQSPASLAVSLGQRATISCRASESVDIYGNSFMHWYQQKPGQPPKLLIYLASKLECGVCARFNGSGCRTDFTLAIDPVEGDDGATYYCQQNYEDPWTFGGGTKLEIK
B2: monoclonal antibody 11B10 (antibody, V domains shown)
VH: B1 VH with D31G, L41H, Y50K, G57V, K63E, E65R, T85S, V93I, Y95F, F104V
VL: B1 VL with L15P, V29I, Q42K, L54R, K57N, C60S, C63P, C71S, A78T
B3: monoclonal antibody 12G6 (antibody, V domains shown)
VH: EVHLQQSGPELVKPGASVKMSCEASGYTFTDYYVAWVKQSPGESFEWIGRVNPYSGGTSYNQKFKGKATLIVDKSSSTAYMELSSLTSEDSAVYYCARWDYGVYEGYIDYWGQGSALTV
VL: DIQMTQSPASLSVSVGETVTITCRASEKIYSNLAWYQQKEGKSPQLLVYAAIRLADGVPSRFSGSGSGTQFSLKINSLQSEDFGTYYCQHFWGTPLTFGAGTKLELK

Molecular target: HA protein of influenza B virus B/Xiamen/N639/2010 (Victoria lineage) (Influenza B virus B/Xiamen/N639/2010)
Assay: cell-based or functional assay

Row | Binder | HI titer (dilution fold) | Neutralization titer
1 | B1 | 3200 | 3200 titer
2 | B2 | 400 | 400 titer
3 | B3 | < 100 | 3200 titer

Molecular target: HA protein of influenza B virus B/Lee/1940 (Influenza B virus B/Lee/1940) (UniProt P03460)
Assay: cell-based or functional assay

Row | Binder | HI titer (dilution fold) | Neutralization titer
4 | B1 | 1600 | 1600 titer
5 | B2 | < 100 | < 100 titer
6 | B3 | 6400 | 6400 titer

Molecular target: HA protein of influenza B virus B/Taiwan/2/1962 (Influenza B virus B/Taiwan/2/1962)
Assay: cell-based or functional assay

Row | Binder | HI titer (dilution fold) | Neutralization titer
7 | B1 | 12800 | 12800 titer
8 | B2 | 800 | 800 titer
9 | B3 | < 100 | 1600 titer

Molecular target: HA protein of influenza B virus B/Maryland/1/1959 (Influenza B virus B/Maryland/1/1959) (UniProt P03461)
Assay: cell-based or functional assay

Row | Binder | HI titer (dilution fold) | Neutralization titer
10 | B1 | 6400 | 800 titer
11 | B2 | < 100 | < 100 titer
12 | B3 | < 100 | 3200 titer

Molecular target: HA protein of influenza B virus B/Xiamen/N697/2012 (Yamagata lineage) (Influenza B virus B/Xiamen/N697/2012)
Assay: cell-based or functional assay

Row | Binder | HI titer (dilution fold) | Neutralization titer
13 | B1 | > 25600 | > 25600 titer
14 | B2 | 800 | 800 titer
15 | B3 | < 100 | 800 titer

Molecular target: HA protein of influenza B virus B/Brisbane/60/2008 (Victoria lineage) (Influenza B virus B/Brisbane/60/2008)
Assay: cell-based or functional assay

Row | Binder | HI titer (dilution fold) | Neutralization titer
16 | B1 | 3200 | 12800 titer
17 | B2 | < 100 | 3200 titer
18 | B3 | 3200 | > 25600 titer

Molecular target: HA protein of B/Singapore/3/1964 (Influenza B virus B/Singapore/3/1964) (UniProt P03464)
Assay: cell-based or functional assay

Row | Binder | HI titer (dilution fold) | Neutralization titer
19 | B1 | 3200 | > 25600 titer
20 | B2 | < 100 | 800 titer
21 | B3 | 400 | 6400 titer

Molecular target: HA protein of influenza B virus B/Xiamen/165/2007 (Victoria lineage) (Influenza B virus B/Xiamen/165/2007)
Assay: cell-based or functional assay

Row | Binder | HI titer (dilution fold) | Neutralization titer
22 | B1 | 12800 | 12800 titer
23 | B2 | 3200 | 3200 titer
24 | B3 | < 100 | 6400 titer

Molecular target: HA protein of influenza B virus B/Malaysia/2506/2004 (Victoria lineage) (Influenza B virus B/Malaysia/2506/2004)
Assay: cell-based or functional assay

Row | Binder | HI titer (dilution fold) | Neutralization titer
25 | B1 | 6400 | > 25600 titer
26 | B2 | 3200 | > 25600 titer
27 | B3 | 3200 | 12800 titer

Molecular target: HA protein of influenza B virus B/Harbin/7/1994 (Yamagata lineage) (Influenza B virus B/Harbin/7/1994)
Assay: cell-based or functional assay

Row | Binder | HI titer (dilution fold) | Neutralization titer
28 | B1 | < 100 | < 100 titer
29 | B2 | < 100 | < 100 titer
30 | B3 | 200 | 3200 titer

Molecular target: HA protein of influenza B virus B/Xiamen/756/2007 (Yamagata lineage) (Influenza B virus B/Xiamen/756/2007)
Assay: cell-based or functional assay

Row | Binder | HI titer (dilution fold) | Neutralization titer
31 | B1 | 12800 | 12800 titer
32 | B2 | 400 | 400 titer
33 | B3 | < 100 | 1600 titer

Molecular target: HA protein of influenza B virus B/Xiamen/N678/2012 (Victoria lineage) (Influenza B virus B/Xiamen/N678/2012)
Assay: cell-based or functional assay

Row | Binder | HI titer (dilution fold) | Neutralization titer
34 | B1 | 6400 | 6400 titer
35 | B2 | 400 | 400 titer
36 | B3 | < 100 | 1600 titer

Molecular target: HA protein of influenza B virus B/Florida/4/2006 (Yamagata lineage) (Influenza B virus B/Florida/4/2006)
Assay: cell-based or functional assay

Row | Binder | HI titer (dilution fold) | Neutralization titer
37 | B1 | > 25600 | > 25600 titer
38 | B2 | 400 | 6400 titer
39 | B3 | 12800 | > 25600 titer

Molecular target: HA protein of influenza B virus B/Brisbane/33/2008 (Victoria lineage) (Influenza B virus B/Brisbane/33/2008)
Assay: cell-based or functional assay

Row | Binder | HI titer (dilution fold) | Neutralization titer
40 | B1 | 3200 | > 25600 titer
41 | B2 | < 100 | 800 titer
42 | B3 | 3200 | > 25600 titer

Molecular target: HA protein of influenza B virus B/Great Lakes/1739/1954 (Influenza B virus B/Great Lakes/1739/1954)
Assay: cell-based or functional assay

Row | Binder | HI titer (dilution fold) | Neutralization titer
43 | B1 | < 100 | < 100 titer
44 | B2 | < 100 | < 100 titer
45 | B3 | 1600 | > 25600 titer

Molecular target: HA protein of influenza B virus B/Hong Kong/330/2001 (Victoria lineage) (Influenza B virus B/Hong Kong/330/2001)
Assay: cell-based or functional assay

Row | Binder | HI titer (dilution fold) | Neutralization titer
46 | B1 | > 25600 | > 25600 titer
47 | B2 | 800 | > 25600 titer
48 | B3 | 3200 | > 25600 titer

Molecular target: HA protein of influenza B virus B/Xiamen/891/2006 (Yamagata lineage) (Influenza B virus B/Xiamen/891/2006)
Assay: cell-based or functional assay

Row | Binder | HI titer (dilution fold) | Neutralization titer
49 | B1 | > 25600 | > 25600 titer
50 | B2 | 800 | 800 titer
51 | B3 | < 100 | 1600 titer

Molecular target: HA protein of influenza B virus B/Xiamen/1147/2008 (Yamagata lineage) (Influenza B virus B/Xiamen/1147/2008)
Assay: cell-based or functional assay

Row | Binder | HI titer (dilution fold) | Neutralization titer
52 | B1 | > 25600 | > 25600 titer
53 | B2 | 800 | 800 titer
54 | B3 | < 100 | 1600 titer

Molecular target: HA protein of B/Xiamen/1346/2008 (Victoria lineage) (Influenza B virus B/Xiamen/1346/2008 (Victoria lineage)) (UniProt P22092)
Assay: cell-based or functional assay

Row | Binder | HI titer (dilution fold) | Neutralization titer
55 | B1 | 6400 | 6400 titer
56 | B2 | 3200 | 3200 titer
57 | B3 | < 100 | 3200 titer

Molecular target: HA protein of influenza A virus A/Brisbane/10/2007 (seasonal H3N2) (Influenza A virus A/Brisbane/10/2007 (H3N2))
Assay: cell-based or functional assay

Row | Binder | HI titer (dilution fold) | Neutralization titer
58 | B1 | < 100 | < 100 titer
59 | B2 | < 100 | < 100 titer
60 | B3 | < 100 | < 100 titer

Molecular target: HA protein of influenza B virus B/Xiamen/3043/2006 (Victoria lineage) (Influenza B virus B/Xiamen/3043/2006)
Assay: cell-based or functional assay

Row | Binder | HI titer (dilution fold) | Neutralization titer
61 | B1 | 12800 | 12800 titer
62 | B2 | 6400 | 6400 titer
63 | B3 | < 100 | 3200 titer
